# From the supplement of paper PMC11908140
# B1: library; numbered along this chain (parent)
# chain: MRKPRAAVGSGHRKQAASQEGRQKHAKNNSQAKPSACDGLARQPEEVVLQASVSSYHLFRDVAEVTAFRGSLLSWYDQEKRDLPWRRRAEDEMDLDRRAYAVWVSEVMLQQTQVATVINYYTGWMQKWPTLQDLASASLEEVNQLWAGLGYYSRGRRLQEGARKVVEELGGHMPRTAETLQQLLPGVGRYTAGAIASIAFGQATGVVDGNVARVLCRVRAIGADPSSTLVSQQLWGLAQQLVDPARPGDFNQAAMELGATVCTPQRPLCSQCPVESLCRARQRVEQEQLLASGSLSGSPDVEECAPNTGQCHLCLPPSEPWDQTLGVVNFPRKASRKPPREESSATCVLEQPGALGAQILLVQRPNSGLLAGLWEFPSVTWEPSEQLQRKALLQELQRWAGPLPATHLRHLGEVVHTFSHIKLTYQVYGLALEGQTPVTTVPPGARWLTQEEFHTAAVSTAMKKVFRVYQGQQPGTCMGSKRSQVSSPCSRKKPRMGQQVLDNFFRSHISTDAHSLNSAAQ
# Variants of: B1
# Test: 8OG:A repair function score (normalized; synonymous = 0, nonsense = -1) (normalized log-likelihood score); higher = more repair activity (WT-like)
# Details: with 8OG:A DNA repair reporter (GFP) in HEK-293 MUTYH KO cells
# Method in brief: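 Lentiviral MUTYH cDNA NNN codon-scan libraries were expressed in MUTYH knockout HEK-293 cells with 10 pg/ml doxycycline, and the cells received an 8OG:A GFP repair reporter together with mCherry. At 72 h, viable mCherry+ cells went into GFP+ (repair) or GFP− bins, three replicates per tile, before tile amplicons were sequenced. A repair function score was then built from per-tile Rosace fitness scores, anchored on the synonymous and nonsense distributions. Synonymous medians sat at 0 and nonsense at -1, and variants under 300 counts per million at the start were left out.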
# 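Further: cells sorted at 72 h after reporter transfection.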
row,Variant,8OG:A repair function score
1,MRKPRAAVGSGHRKQAASQEGRQKHAKNNSQAKPSACDGLARQPEEVVLQASVSSYHLFRDVAEVTAFRGSLLSWYDQEKRDLPWRRRAEDEMDLDRRAYAVWVSEVMLQQTQVATVINYYTGWMQKWPTLQDLASASLEEVNQLWAGLGYYSRGRRLQEGARKVVEELGGHMPRTAETLQQLLPGVGRYTAGAIASIAFGQATGVVDGNVARVLCRVRAIGADPSSTLVSQQLWGLAQQLVDPARPGDFNQAAMELGATVCTPQRPLCSQCPVESLCRARQRVEQEQLLASGSLSGSPDVEECAPNTGQCHLCLPPSEPWDQTLGVVNFPRKASRKPPREESSATCVLEQPGALGAQILLVQRPNSGLLAGLWEFPSVTWEPSEQLQRKALLQELQRWAGPLPATHLRHLGEVVHTFSHIKLTYQVYGLALEGQTPVTTVPPGARWLTQEEFHTAAVSTAMKKVFRVYQGQQPGTCMGSPRSQVSSPCSRKKPRMGQQVLDNFFRSHISTDAHSLNSAAQ [K481P],0.00979
2,MRKPRAAVGSGHRKQAASQEGRQKHAKNNSQAKPSACDGLARQPEEVVLQASVSSYHLFRDTAEVTAFRGSLLSWYDQEKRDLPWRRRAEDEMDLDRRAYAVWVSEVMLQQTQVATVINYYTGWMQKWPTLQDLASASLEEVNQLWAGLGYYSRGRRLQEGARKVVEELGGHMPRTAETLQQLLPGVGRYTAGAIASIAFGQATGVVDGNVARVLCRVRAIGADPSSTLVSQQLWGLAQQLVDPARPGDFNQAAMELGATVCTPQRPLCSQCPVESLCRARQRVEQEQLLASGSLSGSPDVEECAPNTGQCHLCLPPSEPWDQTLGVVNFPRKASRKPPREESSATCVLEQPGALGAQILLVQRPNSGLLAGLWEFPSVTWEPSEQLQRKALLQELQRWAGPLPATHLRHLGEVVHTFSHIKLTYQVYGLALEGQTPVTTVPPGARWLTQEEFHTAAVSTAMKKVFRVYQGQQPGTCMGSKRSQVSSPCSRKKPRMGQQVLDNFFRSHISTDAHSLNSAAQ [V62T],0.00595
3,MRKPRAAVGSGHRKQAASQEGRQKHAKNNSQAKPSACDGLARQPEEVVLQASVSSYHLFRDVAEVTAFRGSLLSWYDQEKRDLPWRRRAEDEMDLDRRAYAVWVSEVMLQQTQVATVINYYTGWMQKWPTLQDLASASLEEVNQLWAGLGYYSRGRRLQEGARKVVETLGGHMPRTAETLQQLLPGVGRYTAGAIASIAFGQATGVVDGNVARVLCRVRAIGADPSSTLVSQQLWGLAQQLVDPARPGDFNQAAMELGATVCTPQRPLCSQCPVESLCRARQRVEQEQLLASGSLSGSPDVEECAPNTGQCHLCLPPSEPWDQTLGVVNFPRKASRKPPREESSATCVLEQPGALGAQILLVQRPNSGLLAGLWEFPSVTWEPSEQLQRKALLQELQRWAGPLPATHLRHLGEVVHTFSHIKLTYQVYGLALEGQTPVTTVPPGARWLTQEEFHTAAVSTAMKKVFRVYQGQQPGTCMGSKRSQVSSPCSRKKPRMGQQVLDNFFRSHISTDAHSLNSAAQ [E168T],-0.0102
4,MRKPRAAVGSGHRKQAASQEGRQKHAKNNSQAKPSACDGLARQPEEVVLQASVSSYHLFRDVAEVTAFRGSLLSWYDQEKRDLPWRRRAEDEMDLDRRAYAVWVSEVMLQQTQVATVINYYTGWMQKWPTLQDLASASLEEVNQLWAGLGYYSRGRRLQEGARKVVEELGGHMPRTAETLQQLLPGVGRYTAGAIASIAFGQATGVVDGNVARVLCRVRAIGADPSSTLVSQQLWGLAQQLVDPARPGDFNQAAMELGATVCTPQRPLCSQCPVESLCRARQRVEQEQLLASGSLSGSPDVEECAPNTGQCHLCLPPSEPWDQTLGVVNFPRKASRKPPREESSATCVLEQPGALGAQILLVQRPNSGLLAGLWEFPSVTWEPSEQLQRKALLQELQRWAGPLPATHLRHLGEVVHTFSHIKLTYQVYGLALEGQTPVTTVTPGARWLTQEEFHTAAVSTAMKKVFRVYQGQQPGTCMGSKRSQVSSPCSRKKPRMGQQVLDNFFRSHISTDAHSLNSAAQ [P442T],-0.0315
5,MRKPRAAVGSGHRKQAASQEGRQKHAKNNSQAKPSACDGLARQPEEVVLQASVSSYHLFRDVAEVTAFRGSLLSWYDQEKRDLPWRRRAEDEMDLDRRAYAVWVSEVMLQQTQVATVINYYTGWMQKWPTLQDLASASLEEVNQLWAGLGYYSRGRRLQEGARKVVEELGGHMPRTAETLQQLLPGVGRYTAGAIASIAFGQATGVVDGNVARVLCRVRAIGADPSSTLVSQQLWGLAQQLVDPARPGDFNQAAMELGATVCTPQRPLCSQCPVESLCRARQRVEQEQLLASGSLSGSPDVEECAPNTGQCHLCLPPSEPWDQTLGVVNFPRKASRKPPREESSATCVLEQPGALGAQILLVQRPNGGLLAGLWEFPSVTWEPSEQLQRKALLQELQRWAGPLPATHLRHLGEVVHTFSHIKLTYQVYGLALEGQTPVTTVPPGARWLTQEEFHTAAVSTAMKKVFRVYQGQQPGTCMGSKRSQVSSPCSRKKPRMGQQVLDNFFRSHISTDAHSLNSAAQ [S367G],-0.159
6,MRKPRAAVGSGHRKQAASQEGRQKHAKNNSQAKPSACDGLARQPEEVVLQASVSSYHLFRDVAEVTAFRGSLLSWYDQEKRDLPWRRRAEDEMDLDRRAYAVWVSEVMLQQTQVATVINYYTGWMQKWPTLQDLASASLEEVNQLWAGLGYYSRGRRLQEGARKVVEELGGHMPRTAETLQQLLPGVGRYTAGAIASIAFGQATGVVDGNVARVLCRVRAIGADPSSTLVSQQLWGLAQQLVDPARPGDFNQAAMELGATVCTPQRPLCSQCPVESLCRARQRVEREQLLASGSLSGSPDVEECAPNTGQCHLCLPPSEPWDQTLGVVNFPRKASRKPPREESSATCVLEQPGALGAQILLVQRPNSGLLAGLWEFPSVTWEPSEQLQRKALLQELQRWAGPLPATHLRHLGEVVHTFSHIKLTYQVYGLALEGQTPVTTVPPGARWLTQEEFHTAAVSTAMKKVFRVYQGQQPGTCMGSKRSQVSSPCSRKKPRMGQQVLDNFFRSHISTDAHSLNSAAQ [Q286R],0.00446
